Reference: article PMC11847541, “Liver fatty acid binding protein FABP1 transfers substrates to cytochrome P450 4A11 for catalysis” (The Journal of Biological Chemistry, 2025)

Columns and labels:
[1] = molecular target: T1, P450 4A11 (Homo sapiens, UniProt Q02928); assay: Alexa-FABP1 and P450 4A11 association kinetics (stopped-flow fluorescence); assay type: binding
T1 construct: made in house; host or cells: E. coli
T1 sequence (Q02928 5-519): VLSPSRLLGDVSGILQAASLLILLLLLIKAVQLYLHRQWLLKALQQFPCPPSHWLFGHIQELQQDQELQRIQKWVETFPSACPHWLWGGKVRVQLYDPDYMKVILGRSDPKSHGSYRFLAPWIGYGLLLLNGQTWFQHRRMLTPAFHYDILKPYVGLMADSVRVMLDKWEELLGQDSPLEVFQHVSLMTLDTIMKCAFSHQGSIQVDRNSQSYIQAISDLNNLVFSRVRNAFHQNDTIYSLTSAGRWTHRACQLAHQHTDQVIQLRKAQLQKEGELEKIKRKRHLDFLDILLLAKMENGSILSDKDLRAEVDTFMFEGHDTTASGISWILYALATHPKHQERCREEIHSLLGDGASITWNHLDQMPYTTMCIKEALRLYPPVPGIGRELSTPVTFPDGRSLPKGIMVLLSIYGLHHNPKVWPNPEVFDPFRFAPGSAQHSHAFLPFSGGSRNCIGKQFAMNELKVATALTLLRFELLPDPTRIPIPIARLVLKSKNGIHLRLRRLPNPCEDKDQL
T1 sequence (P07148 with tags, fused parts or gaps partner): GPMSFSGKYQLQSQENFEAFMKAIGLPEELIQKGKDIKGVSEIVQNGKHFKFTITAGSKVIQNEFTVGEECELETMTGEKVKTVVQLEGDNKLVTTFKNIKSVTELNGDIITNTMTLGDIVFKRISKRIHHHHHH
Experimental: We then investigated whether the rate of protein–protein association could be estimated using our fluorescent construct. A solution of Alexa-FABP1 (125 nM final concentration) was rapidly mixed with P450 4A11 (125 Nm final concentration), and Alexa-488 fluorescence was monitored over time. The data were fit to a single exponential equation and yielded an association rate of 2.0 ± 0.2 s^−1 (Fig. 10B).
To estimate a rate of interaction for FABP1 and P450, we loaded the protein–protein binding data (Fig. 10B) and fit the data to a simple model, E+F↔EF , as described in the Experimental procedures section. The software fit a kon rate of 2.0 × 10^7 M^−1 s^−1, close to that estimated by using the extracted binding rate ∼2 s^−1 at the concentration (0.125 μM) of either reaction component (i.e., 2 s^−1/0.125 μM = 16 μM^−1 s^−1 = 1.6 × 10^7 M^−1 s^−1).
Mixing solutions (2 ml) of (A) Alexa-FABP1 (0.25 μM [estimated by A280 prior to conjugation reaction, accounting for dilution, and assuming no protein loss during the reaction as described earlier]) and (B) P450 4A11 (0.25 μM) were prepared in potassium phosphate buffer (100 mM, pH 7.4) and loaded into the stopped-flow spectrofluorometer described earlier. The instrument (1.24 mm slit width) was set with an excitation wavelength of 470 nm and Oriel end-on filter for emission >495 nm. The fluorescence maximum of Alexa-FABP1 is 510 nm as described earlier, and stimulation is observed upon protein–protein binding (see “Titrations of Alexa-FABP1 with P450 4A11”). At least six replicate measurements were recorded, the spectra were processed such that the fluorescence gain (from DAUDA binding) began at an (x, y) intercept of (0, 0), and the spectra were averaged. A smoothing factor of 0.4 was applied to the data (in Microsoft Excel), and the resulting curve was fit to a single exponential plot in GraphPad Prism, and the rate of association was extracted. The data were loaded into KinTek Explorer and fit to a minimal kinetic model of protein–protein association (i.e., E+F↔EF ), and a second-order rate constant for the association was extracted.

[2] = molecular target: T2, FABP1 (Homo sapiens, UniProt P07148); set-up: method as in PMID 10852718; settings: ADIFAB system; cited from earlier work
T2 construct: GST (N, cleaved yes); made in house; host or cells: Escherichia coli DH5α
T2 sequence (P07148 with tags, fused parts or gaps): T1 sequence (P07148 with tags, fused parts or gaps partner)

Row | Compound | rate of protein–protein association ([1]; Alexa-FABP1 0.125 μM, P450 4A11 0.125 μM, single exponential) [s⁻¹] | kon of FABP1–P450 4A11 association (k6) ([1]; KinTek fit to E+F↔EF) | kon of FABP1–P450 4A11 association ([1]; binding rate ∼2 s^−1 divided by 0.125 μM) [M⁻¹ s⁻¹] | koff of FABP1–P450 4A11 (k-6) ([1]; calculated from kon and Kd) | Kd [2] [nM]
1 | FABP1: delipidated recombinant liver fatty acid binding protein with C-terminal hexahistidine tag | ~2 | 2.0 × 10^7 (k6) M^−1 s^−1 | 1.6e+07 | 2.4 (k-6) s^−1 | 
2 | CCCCCCCCCCCCCCCC(=O)O [Palmitate (C16), palmitate] |  |  |  |  | 60
